According to patent publication US20150168399A1 (INSERM INSTITUT NATIONAL DE LA SANTE ET DE LA RECHERCHE …, published 2015):
Residue numbers refer to the chain shown, from its start. Names and notes keep the numbering of the source.

What was measured:
[1] = target: human leukocyte integrin LFA-1 (CD11a/CD18) on Jurkat cells or human NK cells (human) (UniProt P20701); experiment: cell-based or functional assay
[2] = target: recombinant human endocan (Human active Endocan 1-165, SEQ ID NO: 1) (human) (UniProt Q9NQ30); experiment: cell-based or functional assay
[3] = target: T1, recombinant human endocan (Human active Endocan 1-165, SEQ ID NO: 1)
T1 chain: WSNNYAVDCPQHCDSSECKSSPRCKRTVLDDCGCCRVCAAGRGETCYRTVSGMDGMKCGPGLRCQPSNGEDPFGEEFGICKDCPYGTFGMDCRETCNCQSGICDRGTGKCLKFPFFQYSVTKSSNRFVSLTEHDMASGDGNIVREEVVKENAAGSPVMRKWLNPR

[4] = target: T2, human leukocyte integrin LFA-1 (CD11a/CD18) on Jurkat cells or human NK cells (human, UniProt P20701 26-1170; P05107 23-769); experiment: co-immunoprecipitation from Jurkat lysates with HI111 and mab24
T2 construct: whole, on cells; also called CD11a/CD18 integrin; endocan's receptor
T2 sequence (P20701 26-1170, chain 1 of 2): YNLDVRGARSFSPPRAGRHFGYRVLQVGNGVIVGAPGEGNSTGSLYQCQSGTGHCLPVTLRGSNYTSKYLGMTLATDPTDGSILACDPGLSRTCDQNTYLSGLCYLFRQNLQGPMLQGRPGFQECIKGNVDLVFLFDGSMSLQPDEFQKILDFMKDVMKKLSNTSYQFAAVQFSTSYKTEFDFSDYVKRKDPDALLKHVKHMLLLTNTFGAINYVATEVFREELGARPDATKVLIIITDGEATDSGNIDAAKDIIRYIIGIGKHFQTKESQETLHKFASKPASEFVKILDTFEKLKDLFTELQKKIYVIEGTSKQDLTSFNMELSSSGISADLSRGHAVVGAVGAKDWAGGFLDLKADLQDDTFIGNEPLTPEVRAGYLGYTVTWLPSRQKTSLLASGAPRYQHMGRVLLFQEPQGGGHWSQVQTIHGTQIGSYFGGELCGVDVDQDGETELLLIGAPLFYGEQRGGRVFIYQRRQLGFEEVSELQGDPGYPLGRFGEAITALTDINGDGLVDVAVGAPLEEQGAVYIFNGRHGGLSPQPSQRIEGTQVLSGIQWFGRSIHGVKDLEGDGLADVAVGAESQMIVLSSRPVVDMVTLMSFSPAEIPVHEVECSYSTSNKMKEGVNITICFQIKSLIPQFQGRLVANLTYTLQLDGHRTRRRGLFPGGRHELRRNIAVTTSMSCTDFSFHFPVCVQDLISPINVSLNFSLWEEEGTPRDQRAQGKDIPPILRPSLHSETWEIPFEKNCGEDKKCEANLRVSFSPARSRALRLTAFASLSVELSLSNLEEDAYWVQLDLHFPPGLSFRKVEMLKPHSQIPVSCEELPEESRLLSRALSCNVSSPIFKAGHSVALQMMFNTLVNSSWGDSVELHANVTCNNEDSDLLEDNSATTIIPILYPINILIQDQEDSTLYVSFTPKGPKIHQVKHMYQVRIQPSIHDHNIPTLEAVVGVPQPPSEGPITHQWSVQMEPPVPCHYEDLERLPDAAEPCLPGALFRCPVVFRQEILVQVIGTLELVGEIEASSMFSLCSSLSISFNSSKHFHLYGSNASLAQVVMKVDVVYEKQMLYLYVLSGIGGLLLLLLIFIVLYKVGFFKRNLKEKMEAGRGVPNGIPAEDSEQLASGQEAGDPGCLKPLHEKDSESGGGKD
T2 sequence (P05107 23-769, chain 2 of 2): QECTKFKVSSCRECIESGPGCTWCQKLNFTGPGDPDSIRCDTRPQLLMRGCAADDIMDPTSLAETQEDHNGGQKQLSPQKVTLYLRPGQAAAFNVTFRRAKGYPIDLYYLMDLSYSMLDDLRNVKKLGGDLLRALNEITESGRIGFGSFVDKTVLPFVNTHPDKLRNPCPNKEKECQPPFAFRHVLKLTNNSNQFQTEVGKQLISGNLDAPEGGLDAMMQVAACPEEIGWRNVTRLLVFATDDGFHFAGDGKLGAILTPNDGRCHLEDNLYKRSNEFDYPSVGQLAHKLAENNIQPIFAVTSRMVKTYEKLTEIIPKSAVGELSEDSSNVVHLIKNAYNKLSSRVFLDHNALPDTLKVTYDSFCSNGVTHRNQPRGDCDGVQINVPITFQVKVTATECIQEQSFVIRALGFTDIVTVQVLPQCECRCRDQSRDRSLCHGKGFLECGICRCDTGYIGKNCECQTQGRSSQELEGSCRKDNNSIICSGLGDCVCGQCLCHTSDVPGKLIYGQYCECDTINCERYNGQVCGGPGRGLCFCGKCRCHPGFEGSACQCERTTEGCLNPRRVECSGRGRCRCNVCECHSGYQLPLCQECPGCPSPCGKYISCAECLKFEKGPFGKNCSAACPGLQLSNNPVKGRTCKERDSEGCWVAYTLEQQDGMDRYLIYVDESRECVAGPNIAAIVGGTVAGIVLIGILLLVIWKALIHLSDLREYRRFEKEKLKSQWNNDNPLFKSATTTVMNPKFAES
Experimental: FIG. 4B: Non glycanable endocan is co-immunoprecipitated with anti-LFA-1 mabs. Bound endocan from 20 to 40×10⁶ Jurkat cells were incubated with a mab against endocan (MEC36), mabs against LFA-1 (HI111 and mab24), and anti-CD3 mab as control antibody. Bound endocan is expressed in pg per 10⁶ cells.
Immunoprecipitation of Jurkat lysates containing endocan or non glycanated endocan S137A/E was performed as previously described in Bechard D et al (J Immunol. 2001; 167:3099-3106) using anti-CD11 a mabs HI111 (BD Biosciences), and mab24 (a generous gift of Dr Nancy Hogg from Leukocyte Adhesion Laboratory, Cancer Research UK, London Research Institute, London, UK).

Chain of human leukocyte integrin LFA-1 (CD11a/CD18) on Jurkat cells or human NK cells (human) (P20701 26-1170, chain 1 of 2): as the sequence (P20701 26-1170, chain 1 of 2) above
Chain of human leukocyte integrin LFA-1 (CD11a/CD18) on Jurkat cells or human NK cells (human) (P05107 23-769, chain 2 of 2, further chain): as the sequence (P05107 23-769, chain 2 of 2) above

“monoclonal anti-human LFA-1 clone HI111 (antibody)” was tested, and the decrease in transendothelial migration of NK cells through TNF-stimulated HUVEC [1] was 82%.

For “purified proteinase 3 (Sigma) (from UniProt P24158 28-248) (enzyme)”, the loss of the 50 kDa band of endocan [2] was 1 µg/mL.

B1: purified elastase (Sigma) (protein)
chain: IVGGRRARPHAWPFMVSLQLRGGHFCGATLIAPNFVMSAAHCVANVNVRAVRVVLGAHNLSRREPTRQVFAVQRIFENGYDPVNLLNDIVILQLNGSATINANVQVAQLPAQGRRLGNGVQCLAMGWGLLGRNRGIASVLQELNVTVVTSLCRRSNVCTLVRGRQAGVCFGDSGSPLVCNGLIHGIASFVRGGCASGLYPDAFAPVAQFVNWIDSIIQ
In the case of B1, the “minimal concentration of elastase required for near complete degradation of endocan” value [3] is reported as 0.1 µg/mL.

B2: purified cathepsin G (Sigma) (protein)
chain: IIGGRESRPHSRPYMAYLQIQSPAGQSRCGGFLVREDFVLTAAHCWGSNINVTLGAHNIQRRENTQQHITARRAIRHPQYNQRTIQNDIMLLQLSRRVRRNRNVNPVALPRAQEGLRPGTLCTVAGWGRVSMRRGTDTLREVQLRVQRDRQCLRIFGSYDPRRQICVGDRRERKAAFKGDSGGPLLCNNVAHGIVSYGKSSGVPPEVFTRVSSFLPWIRTTMRS
B2 was tested, and the “minimal concentration of cathepsin G required to cleave completely endocan in 24 h” value [3] was 0.01 µg/mL and the “reduction of the detection of MEP14-bound endocan after two hours with cathepsin G at 37° C.” value [3] was “from 70% to 100%”.

B3: non glycanable endocan mutant (S137A/endocan) (ligand)
chain: T1 chain with S137A
notes: Produced in 293 cells; lacks the glycan chain; also called non glycanated endocan S137A/E
B3: binds [4].
